The source of these data is doi:10.1101/2022.05.23.493104 (bioRxiv, 2022).

Series [1] has as its target T1, CAV1-His (wild type caveolin-1, E. coli expression) (human, UniProt Q03135 1-178).
T1 sequence: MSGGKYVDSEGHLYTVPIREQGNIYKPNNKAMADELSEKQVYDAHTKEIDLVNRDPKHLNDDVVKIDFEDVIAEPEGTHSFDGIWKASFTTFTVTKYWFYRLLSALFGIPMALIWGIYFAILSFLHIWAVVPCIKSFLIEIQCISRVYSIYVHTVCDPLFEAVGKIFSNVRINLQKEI
In words: negative stain electron microscopy.

Series [2] concerns the molecule itself. The experiment in a line: negative stain electron microscopy.

B1: P132L-mVenusHis (caveolin-1 P132L with C-terminal mVenus, E. coli expression) (natural protein, human)
chain: MSGGKYVDSEGHLYTVPIREQGNIYKPNNKAMADELSEKQVYDAHTKEIDLVNRDPKHLNDDVVKIDFEDVIAEPEGTHSFDGIWKASFTTFTVTKYWFYRLLSALFGIPMALIWGIYFAILSFLHIWAVVLCIKSFLIEIQCISRVYSIYVHTVCDPLFEAVGKIFSNVRINLQKEI
Take B1: the binding result in series [1] and in series [2] was “binds” throughout.

B2: P132L-His (caveolin-1 P132L, E. coli expression) (natural protein, human)
chain: MSGGKYVDSEGHLYTVPIREQGNIYKPNNKAMADELSEKQVYDAHTKEIDLVNRDPKHLNDDVVKIDFEDVIAEPEGTHSFDGIWKASFTTFTVTKYWFYRLLSALFGIPMALIWGIYFAILSFLHIWAVVLCIKSFLIEIQCISRVYSIYVHTVCDPLFEAVGKIFSNVRINLQKEI
As to B2, the binding result in series [2] is “binds”.
